Laboratory results published in the supplement of paper PMC12764529.
± gives the half width of the 95% confidence interval.

Assays:
[1] = folding stability dG unfold (combined trypsin and chymotrypsin); higher = more stable
Outline: (§1)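 Digests were run with trypsin and chymotrypsin at 11 concentrations in threefold dilutions, plus a no-protease condition, on designed mini-proteins in a PA-tagged cDNA display construct. The mini-proteins were under 80 residues, had no cysteine, and were kept only when AlphaFold2 dimer inter-PAE was above 15. After sequencing, Bayesian fitting of the counts gave K50, from which unfolding free energy was derived against a sequence-predicted unfolded-state K50 and a shared folded-state K50, per protease or combined.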

[2] = folding stability dG unfold from chymotrypsin proteolysis; higher = more stable
Outline: as §1

[3] = folding stability dG unfold from trypsin proteolysis; higher = more stable
Outline: as §1

Sequence	folding stability dG unfold [1] [kcal/mol]	folding stability dG unfold [2] [kcal/mol]	folding stability dG unfold [3] [kcal/mol]
SAGAHTVSVHYVEPGSKKLSSVETSEITLEPGEELPLDEVAARFPSENYEVTAQEEPDAITITIYVYRGSAG [r5_269_JUSTAS]	0.547 ± 0.087	0.522 ± 0.27	0.303 ± 0.062
SAGAIERILEWLKDQPPGDEVPIPIRLPNGWYIKINIEYNPEENKPKIEVEYYDPDDGKPRQEQKFTIPSAG [r5_35_TrROS]	1.31 ± 0.25	0.899 ± 0.17	1.59 ± 0.077
SAGAKAEPGPSGRLRIYLPDEPIELDVTEDGTVTLTFPNGEKVEFPVEKEKAALVLAELNALGAVVVPQSAG [r5_753_TrMRF]	0.712 ± 0.084	1.09 ± 0.055	-0.367 ± 0.19
SAGAMQTVTLPTPDGRTVTLRHPGISVSVDPEKRTVTISVPSLGKVYTLTFAPDGTVAELSEEPIPELESAG [r5_342_JUSTAS]	2.82 ± 0.11	3.231 ± 0.025	1.53 ± 0.03
SAGAPGEVTVTVVRRPRVETEEERRRRRAPPPPVVTLTLKVPPGWVVRRVAFNADGEIVSVELYRRDDLSAG [r5_750_TrROS_Hall]	2.54 ± 0.06	3.03 ± 0.031	1.38 ± 0.029
SAGAPSTREFEILELVPLPPGTTAEELRATLEREVELPDDSVARIRVRAVFLSPGPAFALVLYRVEVRESAG [r5_939_TrMRF]	3.22 ± 0.12	3.314 ± 0.015	3.15 ± 0.11
SAGASPGVRLTERSEEVIEVEPGEKEKLKEEIKKSEKKYPGGLTEKVEYEVDPNSNKVTITITTTTGLSAGG [r19_45_JUSTAS]	0.383 ± 0.33	0.664 ± 0.084	-0.351 ± 0.23
SAGDADEDPVLVVFVRTEERPLVVVRRVEPDEDPEEVAKELAAEIREKLGPDVEVFVEMVRREDAEKLFSAG [r5_583_TrMRF]	2.42 ± 0.11	2.44 ± 0.039	2.27 ± 0.052
SAGDALKDIFPGLEIEPHEKPVKVPPGKPVEFAFIIRMPDGEIMIFDMHFNPGGEVRVRVLTIKLPEKSAGG [r19_125_TrROS]	3.96 ± 0.27	4.81 ± 0.14	2.88 ± 0.16
SAGDDLKIKKVEIQINPEHGYISVTFRIDGYEVQIMYDVDPKNGPITMDIYYPGKPIGEFTIPLNDIKISAG [r5_415_TrROS]	2.68 ± 0.1	3.01 ± 0.05	1.78 ± 0.083
SAGDEALLERIRARAEAEAKAAGPDPTPLDYRVEVEPVEIDEETGTVKVRVTITAPDREVEREVTVPLVSAG [r5_53_JUSTAS]	0.0838 ± 0.088	-0.113 ± 0.096	0.315 ± 0.051
SAGDKKTIELWFMFKTPEEARHEADSIARRLAEEGLTIKVELKDIEPMPDPDGEKYYMFEFKVTIQLPNSAG [r5_158_TrROS]	3.06 ± 0.14	3.28 ± 0.12	2.55 ± 0.062
SAGDLAEYIAETLQDHFPNMEVEVEIDGVEDGYIVIDITIYFRDMKDNENKPRWVPWEIVIPPGEPLPSAGG [r19_8_TrROS]	3.38 ± 0.19	4.09 ± 0.051	2.36 ± 0.14
SAGDMIKIPFNFKDPNGAKPKELEVMISPDPGVITAMFKYKHNNEPKYYMISIPIDPGNGKIEIEIQPMSAG [r5_136_TrROS]	1.46 ± 0.12	1.65 ± 0.17	1.2 ± 0.058
SAGDNLKIDVEVEPAKVILGEFDENGKLIKPIEKDVLIVKVTVTFSNGKKLEIRATFFDGKLISVSSGSAGG [r19_44_TrMRF]	5.07 ± 0.19	5.26 ± 0.086	3.56 ± 0.16
SAGDNNKKPKYVYIPITINVPLPPGQTHEEAVDEVRLIMEELFPPGFKISEVKVHPEYNTVTVWIQIRSAGG [r19_81_TrROS]	2.22 ± 0.18	2.16 ± 0.044	2.11 ± 0.089

Sequence	folding stability dG unfold [1] [kcal/mol]	folding stability dG unfold [2] [kcal/mol]	folding stability dG unfold [3] [kcal/mol]
SAGDPDRPVVVVIHYVDPETGEPRVEVFPADRIERIEVSPDGVLRIHLPAYGLEIDFPLDVVDHVDIASAGG [r19_416_TrMRF]	2.12 ± 0.027	2.17 ± 0.044	1.99 ± 0.064
SAGDPEVVAEAEFPFTFPLAKIEVRISVYPDGTARIEVTITFPAPGKGNPKKPIKLRFRFEIKLAPDALSAG [r5_224_TrMRF]	5.12 ± 0.36	5.3 ± 0.15	3.8 ± 0.3
SAGDVKIDIHYDEDGYIRVTVPYKSPHEAREEADELARWLAKQFGPKNIDINVEPHPNGMLVIRIPIKKSAG [r5_772_TrROS]	2.62 ± 0.12	3.05 ± 0.082	2.17 ± 0.099
SAGDVPVPATFEVELPGDGTARVTVVRHPGAAPGGFDTVRVEFRPGPTSSVTLTYRVPPGSAPVPFLGGSAG [r5_47_TrMRF]	0.965 ± 0.19	1.33 ± 0.31	0.535 ± 0.16
SAGEATVEKLEDGYVVVFKDGSVAFLPAVPPAVPVVEIPFKDPEEGRRAVEELGADVLDIGDDSIVVAGSAG [r5_328_TrMRF]	-0.01 ± 0.1	0.346 ± 0.033	-1.19 ± 0.16
SAGEEIEELAKKLADELREKYPELEVKVEVVEVTVKTTVVKDKETGKLYTKTEITVKLKVEVVPKEELSAGG [r19_293_TrROS_Hall]	3.08 ± 0.31	3.81 ± 0.21	1.99 ± 0.23
SAGEEIERLLKEIEEAVRKAYPDKVVKVDLVKVELRPVLVVDPGTPRIEERTEIFLEVKVTVTHPDELSAGG [r19_293_TrMRF]	2.63 ± 0.087	2.77 ± 0.08	2.22 ± 0.098
SAGEELIKKLAEELNLEVEIVSVEVDEETPTITVEVRVRNKDGEELTVRITITYDKETDEVHIEVEVLPSAG [r5_929_TrROS_Hall]	4.08 ± 0.2	3.99 ± 0.26	3.91 ± 0.14
SAGEEVYLITVRIIDPETNEVKEITKLIKNKTEDEILEELRKLLEELGIELPEGAKVEITITKIKPPPESAG [r5_230_TrROS_Hall]	4.26 ± 0.82	4.07 ± 0.44	3.53 ± 0.52
SAGEFKIDILPGDNVARITSPEGSFLAPFTATFTFDVPDIADPNKIKPKPVVFNLVIEMKLDDFFDLLSSAG [r5_234_TrMRF]	3.36 ± 0.15	4.17 ± 0.17	2.49 ± 0.1
SAGEIAEKLGFKVEDVSIQKEDGTYRIVVRFPMDDRPVVIMGDIKVEEKNGKRKIEIDIDIMPLPPDDPSAG [r5_516_TrROS]	1.7 ± 0.086	1.57 ± 0.054	1.89 ± 0.03
SAGEKEYVNLPLVVKLPPGVPASLILDAAVKHGAKEVTIVEEPTPDGGMVLHINLVLPKEALPKLLESLSAG [r5_376_TrMRF]	4.79 ± 0.3	4.61 ± 0.17	4.39 ± 0.21
SAGEKFEPVEEKELTLKITLKDKDGNEKEVEIKVKVEVVKNPDGTLTVRAEITFEDGTKIELELEIKLPSAG [r5_57_TrROS_Hall]	3.11 ± 0.33	3.19 ± 0.23	3.27 ± 0.16
SAGEKKKVVIVVHIHIEAESEEDREKALEEARKLAEELARELKEKLGLPEDVKEVVVIVHIHPRSEEEKSAG [r5_436_TrROS_Hall]	2.25 ± 0.12	2.42 ± 0.083	2.01 ± 0.086
SAGEKTVKIKLPNTKTITVKVKKNEKKILYLPNGEKILITDVKKGKVSLKKGITYVKDKNGKWYPLKYKSAG [r5_417_TrMRF]	1.37 ± 0.1	1.86 ± 0.079	0.332 ± 0.15
